In the assay the target is GST-LOV2GIVe (L) (Avena sativa | , UniProt O49003).

B1: His-Gαi3 (natural protein)
chain: MGCTLSAEDKAAVERSKMIDRNLREDGEKAAKEVKLLLLGAGESGKSTIVKQMKIIHEDGYSEDECKQYKVVVYSNTIQSIIAIIRAMGRLKIDFGEAARADDARQLFVLAGSAEEGVMTSELAGVIKRLWRDGGVQACFSRSREYQLNDSASYYLNDLDRISQTNYIPTQQDVLRTRVKTTGIVETHFTFKELYFKMFDVGGQRSERKKWIHCFEGVTAIIFCVALSDYDLVLAEDEEMNRMHESMKLFDSICNNKWFTDTSIILFLNKKDLFEEKIKRSPLTICYPEYTGSNTYEEAAAYIQCQFEDLNRRKDTKEVYTHFTCATDTKNVQFVFDAVTDVIIKNNLKECGLY
The term Kd denotes the free concentration of one partner at which half of the binding sites on the other are occupied at equilibrium, for simple one-to-one binding. A high value points to a looser complex. Molecule B1 returned a Kd of 270 nM. That is a sub-micromolar value.

(Values after publication doi:10.1101/2020.08.17.253781 (2020).)
